Data: patent US20210047402A1 (TENEOBIO, published 2021)

T1: human CD22 (human, UniProt P20273 20-687, limits assumed)
T1 construct: also called SIGLEC-2; human CD22 protein
T1 sequence (looked up): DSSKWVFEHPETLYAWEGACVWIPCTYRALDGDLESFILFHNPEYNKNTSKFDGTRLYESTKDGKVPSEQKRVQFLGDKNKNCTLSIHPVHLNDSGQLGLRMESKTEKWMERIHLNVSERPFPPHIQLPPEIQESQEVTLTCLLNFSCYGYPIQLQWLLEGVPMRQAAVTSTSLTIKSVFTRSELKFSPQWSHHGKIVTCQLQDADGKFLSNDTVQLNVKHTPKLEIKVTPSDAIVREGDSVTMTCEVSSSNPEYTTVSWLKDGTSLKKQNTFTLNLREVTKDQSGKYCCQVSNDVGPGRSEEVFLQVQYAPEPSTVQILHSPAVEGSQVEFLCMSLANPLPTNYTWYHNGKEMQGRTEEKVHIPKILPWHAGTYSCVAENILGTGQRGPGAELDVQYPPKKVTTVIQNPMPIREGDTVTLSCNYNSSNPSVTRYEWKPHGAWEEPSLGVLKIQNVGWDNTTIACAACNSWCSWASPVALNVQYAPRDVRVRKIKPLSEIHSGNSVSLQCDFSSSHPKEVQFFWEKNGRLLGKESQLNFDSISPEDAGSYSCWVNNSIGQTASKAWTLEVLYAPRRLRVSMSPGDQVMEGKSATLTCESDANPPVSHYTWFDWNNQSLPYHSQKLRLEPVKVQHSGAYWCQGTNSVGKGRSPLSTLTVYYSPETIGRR


Molecular target: T1, human CD22
Assay: ELISA protein and cell-binding assays

Row | binding result | Binder
1 | binds | anti-CD22 heavy chain-only antibody Clone ID 335203 (antibody, V domains shown, Heavy chain-only antibody (UniAb), no light chain) VH: QLQLQESGPGLVKPSETLSLTCTVSGDSISSGDYYWGWIRQPPGKGLEWIGHIYYSGVTYYNPSLKNRVTISVDTSKNQFSLKLSSVTAADTAVYYCTREDSSNWRSRGQGTLVTVSS
2 | binds | anti-CD22 heavy chain-only antibody Clone ID 335254 (antibody, V domains shown, Heavy chain-only antibody (UniAb), no light chain) VH: QLQLQESGPGLVKPSETLSLTCTVSGDSISSGDYYWGWIRQPPGKGLEWIGHIYYSGVTYYNPSLKNRVTISVDTSKNQFSLKLSSVTAADTAVYYCTREDSSSWRSRGQGTLVTVSS
3 | binds | anti-CD22 heavy chain-only antibody Clone ID 335297 (antibody, V domains shown, Heavy chain-only antibody (UniAb), no light chain) VH: QLQLQESGPGLVKPSETLSLTCTVSGGSISSSSYYWGWIRQPPGKGLEWIGHIYYSGATYYNPSLKNRVTISVDTSRNQFSLNLSSVTAADTAVYYCTREDSSSWRSRGQGTLVTVSS
4 | binds | anti-CD22 heavy chain-only antibody Clone ID 335285 (antibody, V domains shown, Heavy chain-only antibody (UniAb), no light chain) VH: QLQLQESGPGLVKPSETLSLTCTVSGGSISSSSYYWGWIRQPPGKGLEWIGSIYYSGVTYYNPSLKNRVTISVDTSKNQFSLKLSSVTAADTAVYYCTREDSSSWRSRGQGTLVTVSS
5 | binds | anti-CD22 heavy chain-only antibody Clone ID 335274 (antibody, V domains shown, Heavy chain-only antibody (UniAb), no light chain) VH: QLQLQESGPGLVKPSETLSLTCTVSGGSISSSSYYWGWIRQPPGKGLEWIGSIYYSGSTYYNPSLKSRVTISVDTSRNQFSLNLSSVTAADTAVYYCTREDSSSWRSRGQGTLVTVSS
6 | binds | anti-CD22 heavy chain-only antibody Clone ID 335224 (antibody, V domains shown, Heavy chain-only antibody (UniAb), no light chain) VH: QLQLQESGPGLVKPSETLSLTCTVSGDSISSGDYYWGWIRQPPGKGLEWIGSIYYTGSTYYNPSLKSRVTISVDTSKNQFSLKLSSVTAADTAVYYCTREDSSNWRSRGQGTLVTVSS
7 | binds | anti-CD22 heavy chain-only antibody Clone ID 335244 (antibody, V domains shown, Heavy chain-only antibody (UniAb), no light chain) VH: QLQLQESGPGLVKPSETLSLTCTVSGDSISSGDYYWGWIRQPPGKGLEWIGHIYYSGATYYNPSLKNRVTISVDTSRNQFSLNLSSVTAADTAVYYCTREDSSSWRSRGQGTLVTVSS
8 | binds | anti-CD22 heavy chain-only antibody Clone ID 335295 (antibody, V domains shown, Heavy chain-only antibody (UniAb), no light chain) VH: QLQLQESGPGLVKPSETLSLTCTVSGGSISSSSYYWGWIRQPPGKGLEWIGSIYYSGATYYNPSLKNRVTISVDTSRNQFSLNLSSVTAADTAVYYCTREDSSSWRSRGQGTLVTVSS
9 | binds | anti-CD22 heavy chain-only antibody Clone ID 335260 (antibody, V domains shown, Heavy chain-only antibody (UniAb), no light chain) VH: QLQLQESGPGLVKPSETLSLTCTVSGDSISSGDYYWGWIRQPPGKGLEWIGHIYYSGVTYYNPSLKNRVTISVDTSRNQFSLNLSSVTAADTAVYYCTREDSSSWRSRGQGTLVTVSS
10 | binds | anti-CD22 heavy chain-only antibody Clone ID 335208 (antibody, V domains shown, Heavy chain-only antibody (UniAb), no light chain) VH: QLQLQESGPGLVKPSETLSLTCTVSGGSISSSSYYWGWIRQPPGKGLEWIGSIYYSGATYYNPSLKNRVTISVDTSRNQFSLNLSSVTAADTAVYYCTREDSSNWRSRGQGTLVTVSS
11 | binds | anti-CD22 heavy chain-only antibody Clone ID 335236 (antibody, V domains shown, Heavy chain-only antibody (UniAb), no light chain) VH: QLQLQESGPGLVKPSETLSLTCTVSGGSISSSSYYWGWIRQPPGKGLEWIGSIYYSGSTYYNPSLKSRVTISVDTSKNQFSLKLSSVTAADTAVYYCTREDSSNWRSRGQGTLVTVSS
12 | binds | anti-CD22 heavy chain-only antibody Clone ID 335273 (antibody, V domains shown, Heavy chain-only antibody (UniAb), no light chain) VH: QLQLQESGPGLVKPSETLSLTCTVSGGSISSSSYYWGWIRQPPGKGLEWIGSIYYSGSTYYNPSLKSRVTISVDTSKNQFSLKLSSVTAADTAVYYCTREDSSSWRSRGQGTLVTVSS
13 | binds | anti-CD22 heavy chain-only antibody Clone ID 335234 (antibody, V domains shown, Heavy chain-only antibody (UniAb), no light chain) VH: QLQLQESGPGLVKPSETLSLTCTVSGDSISSGDYYWGWIRQPPGKGLEWIGNIYYSGATYYNPSLKNRVTISVDTSKNQFSLKLSSVTAADTAVYYCTREDSSNWRSRGQGTLVTVSS
14 | binds | anti-CD22 heavy chain-only antibody Clone ID 335266 (antibody, V domains shown, Heavy chain-only antibody (UniAb), no light chain) VH: QLQLQESGPGLVRPSETLSLTCTVSGGSISSSSYYWGWIRQPPGKGLEWIGSIYYSGSTYYNPSLKSRVTISVDTSKNQFSLKLSSVTAADTAVYYCTREDSSSWRSRGQGTLVTVSS
15 | binds | anti-CD22 heavy chain-only antibody Clone ID 335232 (antibody, V domains shown, Heavy chain-only antibody (UniAb), no light chain) VH: QLQLQESGPGLVKPSETLSLTCTVSGDSISSGDYYWGWIRQPPGKGLEWIGHIYYSGATYYNPSLKNRVTISVDTSRNQSSLNLSSVTAADTAVYYCTREDSSNWRSRGQGTLVTVSS
16 | binds | anti-CD22 heavy chain-only antibody Clone ID 335293 (antibody, V domains shown, Heavy chain-only antibody (UniAb), no light chain) VH: QLQLQESGPGLVKPSETLSLTCTVSGDSISSGDYYWGWIRQPPGKGLEWIGHIYYSGATYYNPSLKNRVTISVDTSRNQFSLKLSSVTAADTAVYYCTREDSSSWRSRGQGTLVTVSS
17 | binds | anti-CD22 heavy chain-only antibody Clone ID 335230 (antibody, V domains shown, Heavy chain-only antibody (UniAb), no light chain) VH: QLQLQESDPGLVKPSETLSLTCTVSGGSISSSSHYWGWIRQPPGKGLEWIGHIYYSGATYYNPSLKNRVTISVDTSRNQFSLNLSSVTAADTAVYYCTREDSSNWRSRGQGTLVTVSS
18 | binds | anti-CD22 heavy chain-only antibody Clone ID 335261 (antibody, V domains shown, Heavy chain-only antibody (UniAb), no light chain) VH: QLQLQESGPGLVKPSETLSLTCTVSGDSISSGDYYWGWIRQPPGKGLEWIGHIYYSGATYYNPSLENRVTISVDTSKNQFSLKLSSVTAADTAVYYCTREDSSSWRSRGQGTLVTVSS
19 | binds | anti-CD22 heavy chain-only antibody Clone ID 335263 (antibody, V domains shown, Heavy chain-only antibody (UniAb), no light chain) VH: QLQLQESGPGLVKPSETLSLTCTVSGGSINDNSHYWGWIRQPPGKGLEWIGHIYYSGATYYNPSLKNRVTISVDTSRNQFSLNLSSVTAADTAVYYCTREDSSSWRSRGQGTLVTVSS
20 | binds | anti-CD22 heavy chain-only antibody Clone ID 335218 (antibody, V domains shown, Heavy chain-only antibody (UniAb), no light chain) VH: QLQLQESGPGLVKPSETLSLTCTVSGDSISSGDYYWGWIRQPPGKGLEWIGHIYYSGATYYNPSLKNRVTISVDTSRNQFSLKLSSVTAADTAVYYCTREDSSNWRSRGQGTLVTVSS
21 | binds | anti-CD22 heavy chain-only antibody Clone ID 335220 (antibody, V domains shown, Heavy chain-only antibody (UniAb), no light chain) VH: QLQLQESGPGLVKPSETLSLTCTVSGGSISSSSYYWGWIRQPPGKGLEWIGSIYYSGSTYYNPSLKNRVTISVDTSKNQFSLKLSSVTAADTAVYYCTREDSSNWRSRGQGTLVTVSS
22 | binds | anti-CD22 heavy chain-only antibody Clone ID 335242 (antibody, V domains shown, Heavy chain-only antibody (UniAb), no light chain) VH: QLQLQESGPGLVKPSETLSLTCTVSGGSISSSSYYWGWIRQPPGKGLEWIGHIYYSGATYYNPSLKNRVTISVDTSRNQFSLNLSSVTAADTAVYYCTREDSSNWRSRGQGTLVTVSS
23 | binds | anti-CD22 heavy chain-only antibody Clone ID 335233 (antibody, V domains shown, Heavy chain-only antibody (UniAb), no light chain) VH: QLQLQESGPGLVKPSETLSLTCTVSGDSISSGDYYWGWIRQPPGKGLEWIGSIYYSGSTYYNPSLKSRVTISVDTSKNQFSLKLSSVTAADTAVYYCTREDSSNWRSRGQGTLVTVSS
24 | binds | anti-CD22 heavy chain-only antibody Clone ID 335245 (antibody, V domains shown, Heavy chain-only antibody (UniAb), no light chain) VH: QLQLQESGPGLVKPSETLSLTCTVSGDSISSGDYYWGWIRQPPGKGLEWIGHIYYSGATYYNPSLKNRVTISVDTSKNQFSLKLSSVTAADTAVYYCTREDSSSWRSRGQGTLVTVSS
25 | binds | anti-CD22 heavy chain-only antibody Clone ID 335219 (antibody, V domains shown, Heavy chain-only antibody (UniAb), no light chain) VH: QLQLQESGPGLVKPSETLSLTCTVSGGSISSSSYYWGWIRQPPGKGLEWIGSIYYSGVTYYNPSLKNRVTISVDTSKNQFSLKLSSVTAADTAVYYCTREDSSNWRSRGQGTLVTVSS
26 | binds | anti-CD22 heavy chain-only antibody Clone ID 335210 (antibody, V domains shown, Heavy chain-only antibody (UniAb), no light chain) VH: QLQLQESGPGLVKPSETLSLTCTVSGGSISSGDYYWGWIRQPPGKGLEWIGHIYYSGATYYNPSLKNRVTISVDTSRNQFSLKLSSVTAADTAVYYCTREDSSNWRSRGQGTLVTVSS
27 | binds | anti-CD22 heavy chain-only antibody Clone ID 335207 (antibody, V domains shown, Heavy chain-only antibody (UniAb), no light chain) VH: QLQLQESGPGLVKPSETLSLTCTVSGDSISSGDYYWGWIRQPPGKGLEWIGHIYYSGVTYYNPSLKSRVTISVDTSRNQFSLKLSSVTAADTAVYYCTREDSSNWRSRGQGTLVTVSS
28 | binds | anti-CD22 heavy chain-only antibody Clone ID 335226 (antibody, V domains shown, Heavy chain-only antibody (UniAb), no light chain) VH: QLQLQESGPGLVKPSETLSLTCTVSGDSISSSSYYWGWIRQPPGKGLEWIGSIYYSGSTYYNPSLKSRVTISVDTSKNQFSLKLSSVTAADTAVYYCTREDSSNWRSRGQGTLVTVSS
29 | binds | anti-CD22 heavy chain-only antibody Clone ID 335283 (antibody, V domains shown, Heavy chain-only antibody (UniAb), no light chain) VH: QLQLQESGPGLVKPSETLSLTCTVSGGSISSSSYYWGWIRQPPGKGLEWIGSIYYSGATYYNPSLKNRVTISVDTSKNQFSLKLSSVTAADTAVYYCTREDSSSWRSRGQGTLVTVSS
30 | binds | anti-CD22 heavy chain-only antibody Clone ID 335271 (antibody, V domains shown, Heavy chain-only antibody (UniAb), no light chain) VH: QLQLQESGPGLVKPSETLSLTCTVSGDSISSGDYYWGWIRHPPGKGLEWIGHIYYSGATYYNPSLKNRVTISVDTSKNQFSLKLSSVTAADTAVYYCTREDSSSWRSRGQGTLVTVSS
